Data on three molecules can be found in patent publication US20240101670A1 (Eli Lilly, published 2024).

Where “and” joins values, the source holds several entries; their conditions need not be identical. Identical values can stand only once.

Test [1] deals with T1, human LAIR1 on cells (human, UniProt Q6GTX8 22-287).
T1 construct: also called hLAIR1; Jurkat-hLAIR1+
T1 sequence: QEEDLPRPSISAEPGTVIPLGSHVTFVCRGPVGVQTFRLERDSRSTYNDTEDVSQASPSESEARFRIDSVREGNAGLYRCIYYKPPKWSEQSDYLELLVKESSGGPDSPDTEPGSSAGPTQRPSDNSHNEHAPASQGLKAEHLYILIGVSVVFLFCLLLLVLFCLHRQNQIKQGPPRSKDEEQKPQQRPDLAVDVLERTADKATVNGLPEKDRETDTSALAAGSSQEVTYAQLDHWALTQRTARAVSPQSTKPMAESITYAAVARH
Kind of test: in vivo receptor occupancy by FACS on splenocytes, Treg; fit table; log10 of the dose, unit not given.

The target in test [2] is T1, human LAIR1 on cells. Kind of test: cell-based or functional assay.
Test [3] has as its target T1, human LAIR1 on cells. Briefly: flow cytometry, Jurkat-hLAIR1+ cells. The procedure: (§1) The anti-human LAIR1 antibodies were evaluated for binding to human and cynomolgus monkey (cyno) LAIR1 engineered cell lines and primary human T cells that endogenously express LAIR1. Jurkat-hLAIR1+ (Jurkat cell overexpressing human LAIR1), Jurkat-LAIR1ko (Jurkat cell knocking out human LAIR1), Jurkat-cyLAIR1+ cells (Jurkat LAIR1ko cell expressing cyno LAIR1), and primary human T cells were incubated with the anti-human LAIR1 test antibodies. […] Cells were then washed and incubated with anti-human IgG Alexa Fluor 647 secondary antibody for 20 minutes at 4° C. Cells were then washed and antibody binding was evaluated by flow cytometry. For primary human T cells, cells were also stained for CD4 and CD8 to delineate CD4+ and CD8+ T cells.
On the technique in general: Flow cytometry measures light scatter and fluorescence of single cells or particles in a stream.

Test [4] deals with T2, LAIR2 (human, UniProt Q6ISS4 22-152).
T2 construct: also called human LAIR2
T2 sequence (looked up): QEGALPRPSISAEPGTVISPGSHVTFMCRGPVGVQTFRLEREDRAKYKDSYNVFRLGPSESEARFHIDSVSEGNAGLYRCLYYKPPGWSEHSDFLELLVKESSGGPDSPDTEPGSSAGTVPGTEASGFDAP
Kind of test: ELISA on hLAIR2, O.D.560 against antibody concentration.

In test [5] the target is T1, human LAIR1 on cells. Briefly: in vivo receptor occupancy by FACS on splenocytes, CD4 T cells; fit table; log10 of the dose, unit not given.
Test [6] has as its target T3, Human C1q (human, UniProt P02745 23-245; P02746 28-253; P02747 29-245).
T3 construct: Bought (MS Biomedical); also called complement component C1q
Briefly: ELISA: antibody coated on the plate at the concentration shown, human C1q added at 10 ug/mL, detection with sheep anti-human C1q-HRP, OD450.
Experimental: Testing was performed in duplicate wells. The plate was sealed and incubated overnight at 4° C. The coating reagent was removed from each well, and 200 μL/well of casein blocking reagent (Thermo) was added. The plate was sealed and incubated for 2 hours at room temperature (RT). Each well was washed 3 times with wash buffer (1×TBE with 0.05% Tween 20). One hundred microliters per well of Human C1q (MS Biomedical) at 10 μg/mL diluted in casein blocking reagent was added and incubated for 3 hours at RT. The plate was then washed three times with wash buffer before 100 μL/well of a 1:800 times dilution of Sheep anti-human C1q-HRP (Abcam #ab46191) in casein blocker was added and incubated for 1 hour at RT. The plate was washed 6 times with wash buffer, and 100 μL/well of TMB Substrate (Pierce) was added to each well and incubated for 7 minutes. […] Optical density was immediately measured using a colorimetric microplate reader set to 450 nm.

In test [7] the target is T1, human LAIR1 on cells. Briefly: cell-based or functional assay. This is another data set of the same source.
Test [8] deals with T1, human LAIR1 on cells. Kind of test: cell-based or functional assay. This is another data set of the same source.
In test [9] the target is cynomolgus monkey LAIR1 on cells (cynomolgus monkey). Kind of test: cell-based or functional assay.
Test [10] has as its target T1, human LAIR1 on cells. Kind of test: cell-based or functional assay. The source holds these as a separate data set.
The target of test [11] is T4, cynomolgus monkey LAIR1 on cells (cynomolgus monkey).
T4 construct: whole, on cells; Jurkat LAIR1ko cells expressing cyno LAIR1; also called cyno LAIR1; cyLAIR1
Briefly: flow cytometry, Jurkat-cyLAIR1+ cells. As to the method: as §1

The target in test [12] is T1, human LAIR1 on cells. Kind of test: flow cytometry, primary human CD8+ T cells (endogenous LAIR1). As to the method:
as §1

Test [13] concerns the target T1, human LAIR1 on cells. Kind of test: flow cytometry, primary human CD4+ T cells (endogenous LAIR1). The procedure:
as §1

Test [14] concerns the target T5, soluble, extracellular domain (ECD) of LAIR1 (human, UniProt Q6GTX8 22-163).
T5 construct: Produced recombinantly; also called LAIR1-ECD; LAIR1 ECD protein
T5 chain: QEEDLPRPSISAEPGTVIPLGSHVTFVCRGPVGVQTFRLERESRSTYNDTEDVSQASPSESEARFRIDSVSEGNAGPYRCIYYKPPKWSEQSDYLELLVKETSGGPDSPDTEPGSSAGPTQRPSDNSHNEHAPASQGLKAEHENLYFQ
Kind of test: SPR, Biacore 8K, 37 °C, antibody captured on anti-human kappa, LAIR1-ECD as analyte. The procedure: Antibody binding affinity and kinetics were determined by surface plasmon resonance (SPR) using a Biacore 8K (Cytivia Life Sciences). Measurements were performed at 37° C. using HBS-EP+ as the running buffer (150 mM sodium chloride, 3 mM EDTA, 0.05% (w/v) surfactant P-20, and 10 mM HEPES, pH7.4). Binding experiments used the soluble, extracellular domain (ECD) of LAIR1 (SEQ ID NO: 17), produced recombinantly, which was diluted to working concentration in HBS-EP+ containing 0.1 mg/mL Bovine serum albumin. Goat anti-Human kappa (Southern Biotech) was immobilized on all eight flow cells of a CM4 sensor chip using an amine coupling kit.
Binding was evaluated using multiple analytical cycles. Each cycle is performed at a flow rate of 30 μL/minute and consists of the following steps: injection of antibody over a different flow cell (25 μL of antibody at 0.5 μg/mL at 10 μL/minute), injection of 75 μL (30 μL/min, for 150 seconds) of each LAIR1-ECD dilution (starting at 1 μM and using three-fold serial dilutions to 1.4 nM for each cycle, with one injection for each concentration) followed by a 1200 second delay for dissociation, and chip surface regeneration using three 15 μL injections (30 μL/min, for 30 seconds) of 10 mM glycine hydrochloride, pH1.7. Association and dissociation rates for each cycle were determined by fitting of the biosensor data to a simple 1:1 association model using the provided instrument analysis software to extract the kₒₙ and koff rate constants; the equilibrium binding constant KD was calculated using the relationship Kd=koff/kₒₙ.
For orientation: In SPR one partner is held on a chip, and binding of the other changes the refractive index at the surface.

In test [15] the target is T1, human LAIR1 on cells. Kind of test: in vivo receptor occupancy by FACS on splenocytes, CD8 T cells; fit table; log10 of the dose, unit not given. An excerpt: Human peripheral blood mononuclear cells (PBMCs) were engrafted into NSG mice where the human immune cells recognize the mouse as foreign and mount an immune response resulting in Graft versus Host Disease (GvHD). […] Blood was obtained on day 5 by retro-orbital sinus and day 8 by cardiac puncture and processed for analyses of serum cytokines (MSD human pro-inflammatory cytokine panel) and drug exposure (antigen capture ELISA).

T3 sequence (P02745 23-245 limits assumed, chain 1 of 3): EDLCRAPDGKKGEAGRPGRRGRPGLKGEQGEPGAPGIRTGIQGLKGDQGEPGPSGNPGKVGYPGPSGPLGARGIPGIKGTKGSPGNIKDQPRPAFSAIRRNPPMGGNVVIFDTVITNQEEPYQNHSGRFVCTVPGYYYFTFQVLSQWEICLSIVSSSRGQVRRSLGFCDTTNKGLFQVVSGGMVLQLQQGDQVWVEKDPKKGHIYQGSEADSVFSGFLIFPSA
T3 sequence (P02746 28-253 limits assumed, chain 2 of 3): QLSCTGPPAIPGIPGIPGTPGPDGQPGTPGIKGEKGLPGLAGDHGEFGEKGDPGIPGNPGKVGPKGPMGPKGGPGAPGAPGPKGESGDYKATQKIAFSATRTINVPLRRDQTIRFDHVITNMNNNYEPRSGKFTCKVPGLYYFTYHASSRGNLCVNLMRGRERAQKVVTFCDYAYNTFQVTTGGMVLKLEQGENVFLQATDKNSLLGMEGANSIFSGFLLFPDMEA
T3 sequence (P02747 29-245 limits assumed, chain 3 of 3): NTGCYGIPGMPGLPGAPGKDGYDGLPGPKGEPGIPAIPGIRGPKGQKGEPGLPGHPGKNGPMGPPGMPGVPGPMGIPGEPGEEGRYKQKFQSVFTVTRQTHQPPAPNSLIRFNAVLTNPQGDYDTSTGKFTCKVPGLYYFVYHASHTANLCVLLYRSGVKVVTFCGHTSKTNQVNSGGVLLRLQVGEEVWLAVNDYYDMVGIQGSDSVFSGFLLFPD

B1: mAb4 (antibody, human IgG4 S228P, kappa)
heavy: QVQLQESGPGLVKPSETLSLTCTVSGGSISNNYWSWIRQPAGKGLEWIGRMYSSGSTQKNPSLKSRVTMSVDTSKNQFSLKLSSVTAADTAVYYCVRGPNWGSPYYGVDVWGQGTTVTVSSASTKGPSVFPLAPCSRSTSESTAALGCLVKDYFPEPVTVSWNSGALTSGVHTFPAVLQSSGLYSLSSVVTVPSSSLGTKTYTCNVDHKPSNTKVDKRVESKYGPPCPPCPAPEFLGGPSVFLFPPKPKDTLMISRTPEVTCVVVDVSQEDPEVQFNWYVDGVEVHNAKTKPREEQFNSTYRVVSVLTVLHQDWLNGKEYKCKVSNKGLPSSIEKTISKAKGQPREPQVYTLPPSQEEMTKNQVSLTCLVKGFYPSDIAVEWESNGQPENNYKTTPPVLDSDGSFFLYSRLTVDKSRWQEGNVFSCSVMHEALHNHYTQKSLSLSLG
light: DIVMTQSPLSLPVTPGEPASISCRSSPSLLHSDGYNWLDWYLQKPGQSPQLLIYLGSNRASGVPDRFSGSGSGTDFTLKISRVEAEDVGVYYCMQAHQTPFTFGQGTKVEIKRTVAAPSVFIFPPSDEQLKSGTASVVCLLNNFYPREAKVQWKVDNALQSGNSQESVTEQDSKDSTYSLSSTLTLSKADYEKHKVYACEVTHQGLSSPVTKSFNRGEC
notes: also called anti-human LAIR1 mAb4; LAIR1 agonist antibody
With B1, the “LogIC50 of % receptor occupancy, Treg” value in test [1] is -0.771. Moreover, the “Inhibition of IFN-γ response at 1 µg/mL (% inhibition vs. no antibody), primary human T cells” value in test [2] came out at 41.1%. Besides, the EC50 in test [3] is 0.0565 µg/mL; in [11], 0.0893 µg/mL; in test [12], 0.0349 µg/mL; in test [13], 0.0162 µg/mL. Also, the values for the binding result in [4] and in test [6] were “no binding (tested: 10 ug/ml)” and “no binding (tested: 10 ug/mL)”, respectively. In addition, the “LogIC50 of % receptor occupancy, CD4 T cells” value in [5] is -0.933. Besides, in [7], the “IC50 of inhibition of B cell IL-6 response to BCR stimulation” value was 0.0002 nM and 0.03 ng/mL. Also, the “IC50 of inhibition of Jurkat-hLAIR1+ NFAT activation” value in [7] turned out to be 0.045 nM. Besides, the “Inhibition of IL-6 response at 8 ng/mL (% inhibition vs. no antibody), primary human B cells” value in test [8] was 42.7%. In addition, in test [9], the “Inhibition of NFAT Activity (% inhibition vs. no antibody), Jurkat-cyLAIR1+” value came to 65.5%. In addition, the “IC50 of antibody activity, Jurkat-hLAIR1+ NFAT” value (“IC50 of antibody activity” below) in test [10] was 0.00666 µg/mL. Also, in [10], the “Inhibition of NFAT Activity (% inhibition vs. no antibody), Jurkat-hLAIR1+” value worked out at 60.4%. Further, binding in test [14] was characterised by a dissociation constant (Kd) of 0.291 nM. In [14], this molecule displayed a dissociation rate constant (koff) of 0.000317 s⁻¹. Also, in [14], the kon was determined as 1.09e+06 M⁻¹ s⁻¹. The “LogIC50 of % receptor occupancy, CD8 T cells” value in [15] was -0.864.

B2: mAb2 (antibody, human IgG2, kappa)
heavy: QVQLQESGPGLVKPSETLSLTCTVSGGSISNNYWSWIRQPAGKGLEWIGRMYSSGSTQKNPSLKSRVTMSVDTSKNQFSLKLSSVTAADTAVYYCVRGPNWGSPYYGVDVWGQGTTVTVSSASTKGPSVFPLAPSSRSTSESTAALGCLVKDYFPEPVTVSWNSGALTSGVHTFPAVLQSSGLYSLSSVVTVPSSNFGTQTYTCNVDHKPSNTKVDKTVERKCCVECPPCPAPPVAGPSVFLFPPKPKDTLMISRTPEVTCVVVDVSHEDPEVQFNWYVDGMEVHNAKTKPREEQFNSTFRVVSVLTVVHQDWLNGKEYKCKVSNKGLPAPIEKTISKTKGQPREPQVYTLPPSREEMTKNQVSLTCLVKGFYPSDIAVEWESNGQPENNYKTTPPMLDSDGSFFLYSKLTVDKSRWQQGNVFSCSVMHEALHNHYTQKSLSLSPG
light: DIVMTQSPLSLPVTPGEPASISCRSSPSLLHSDGYNWLDWYLQKPGQSPQLLIYLGSNRASGVPDRFSGSGSGTDFTLKISRVEAEDVGVYYCMQAHQTPFTFGQGTKVEIKRTVAAPSVFIFPPSDEQLKSGTASVVCLLNNFYPREAKVQWKVDNALQSGNSQESVTEQDSKDSTYSLSSTLTLSKADYEKHKVYACEVTHQGLSSPVTKSFNRGEC
notes: also called anti-human LAIR1 antibody mAb2
As for B2, the “Inhibition of IFN-γ response at 1 µg/mL (% inhibition vs. no antibody), primary human T cells” value in [2] was 45.8%. The EC50 in test [3] was found to be 0.058 µg/mL. Further, the “Inhibition of IL-6 response at 8 ng/mL (% inhibition vs. no antibody), primary human B cells” value in test [8] was 35.4%. For the same molecule, the “Inhibition of NFAT Activity (% inhibition vs. no antibody), Jurkat-cyLAIR1+” value in test [9] stood at 59.6%. For the same molecule, in test [10], the “IC50 of antibody activity” value amounted to 0.00858 µg/mL and the “Inhibition of NFAT Activity (% inhibition vs. no antibody), Jurkat-hLAIR1+” value was 49.8%. The molecule further registered an EC50 in test [11] of 0.0824 µg/mL. Moreover, in test [12], the EC50 was found to be 0.0414 µg/mL. The molecule further gave a 50% effective concentration (EC50) in test [13] of 0.0288 µg/mL. In test [14], this molecule returned a Kd of 0.312 nM, a koff of 0.000341 s⁻¹ and a kon of 1.09e+06 M⁻¹ s⁻¹.

B3: mAb1 (antibody, human IgG2, kappa)
heavy: QVQLQESGPGLVKPSETLSLTCTAFGGSISGHYWSWIRQPAGKGLEWIGRIYPSGGTNKNPSLKSRVTMSVDTSKNQFSLKLSSVTAADTAVYYCVRDYWDDYYGMDVWGQGTTVTVSSASTKGPSVFPLAPSSRSTSESTAALGCLVKDYFPEPVTVSWNSGALTSGVHTFPAVLQSSGLYSLSSVVTVPSSNFGTQTYTCNVDHKPSNTKVDKTVERKCCVECPPCPAPPVAGPSVFLFPPKPKDTLMISRTPEVTCVVVDVSHEDPEVQFNWYVDGMEVHNAKTKPREEQFNSTFRVVSVLTVVHQDWLNGKEYKCKVSNKGLPAPIEKTISKTKGQPREPQVYTLPPSREEMTKNQVSLTCLVKGFYPSDIAVEWESNGQPENNYKTTPPMLDSDGSFFLYSKLTVDKSRWQQGNVFSCSVMHEALHNHYTQKSLSLSPG
light: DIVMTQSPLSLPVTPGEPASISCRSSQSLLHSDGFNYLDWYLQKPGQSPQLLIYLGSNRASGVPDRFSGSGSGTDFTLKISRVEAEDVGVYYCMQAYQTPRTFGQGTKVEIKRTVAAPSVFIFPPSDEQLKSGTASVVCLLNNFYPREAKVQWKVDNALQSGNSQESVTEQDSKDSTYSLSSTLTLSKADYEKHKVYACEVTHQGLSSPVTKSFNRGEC
notes: also called anti-human LAIR1 antibody mAb1
For the molecule B3, the “Inhibition of IFN-γ response at 1 µg/mL (% inhibition vs. no antibody), primary human T cells” value in test [2] was 35.7%. Besides, the EC50 was 0.0548 µg/mL in [3], 0.0784 µg/mL in test [11], 0.0489 µg/mL in test [12] and 0.037 µg/mL in [13]. Moreover, the “Inhibition of IL-6 response at 8 ng/mL (% inhibition vs. no antibody), primary human B cells” value in test [8] came out at 60.2%. For the same molecule, in test [9], the “Inhibition of NFAT Activity (% inhibition vs. no antibody), Jurkat-cyLAIR1+” value was 44.2%. The “IC50 of antibody activity” value in test [10] came to 0.00942 µg/mL. Also, in test [10], the “Inhibition of NFAT Activity (% inhibition vs. no antibody), Jurkat-hLAIR1+” value was found to be 54.2%. This molecule also yielded a Kd in [14] of 0.121 nM. The koff in test [14] was 0.000174 s⁻¹. In addition, in test [14], the on-rate constant (kon) stood at 1.44e+06 M⁻¹ s⁻¹.

As a reminder, the EC50 is the concentration that produces a half-maximal response. One may read the Kd as the equilibrium constant for the complex coming apart. The koff is the rate constant with which the complex falls apart. In general, kon refers to a measure of how fast the partners come together.
